Results from PMC8834437, “Physical Interaction between Embryonic Stem Cell-Expressed Ras (ERas) and Arginase-1 in Quiescent Hepatic Stellate Cells” (Cells, 2022).

T1: purified arginase 1 (ARG1; aa 1-322) (UniProt P05089 1-322)
T1 construct: Arginase 1 (ARG1), P05089, aa 1-322; Named MBP-ARG1 only for the SPR; also called MBP-ARG1; purified ARG1
T1 sequence (looked up): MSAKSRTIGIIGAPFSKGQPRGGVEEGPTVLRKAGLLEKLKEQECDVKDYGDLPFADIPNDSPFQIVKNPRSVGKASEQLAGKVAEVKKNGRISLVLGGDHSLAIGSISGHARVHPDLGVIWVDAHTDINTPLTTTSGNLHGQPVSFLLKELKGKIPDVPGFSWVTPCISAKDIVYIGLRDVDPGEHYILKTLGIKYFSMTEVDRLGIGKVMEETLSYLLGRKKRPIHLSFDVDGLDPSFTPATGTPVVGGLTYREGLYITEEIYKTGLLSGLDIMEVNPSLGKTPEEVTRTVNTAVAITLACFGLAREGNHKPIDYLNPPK


How the values were obtained:
[1] = target: T1, purified arginase 1 (ARG1; aa 1-322); assay: pull-down; GST-fusion proteins immobilized on GSH agarose beads, mixed with purified ARG1, 1 h at 4 °C; conditions: both partners purified
[2] = target: T1, purified arginase 1 (ARG1; aa 1-322); assay: SPR; Biacore X100, CM5 chip, GST-hsNex (10 µM) captured by immobilized anti-GST antibody, MBP-ARG1 0.5-20 µM injected, 25 °C, 10 mM HEPES pH 7.4, 150 mM NaCl, 0.05% P20, Langmuir 1:1 model; conditions: both partners purified

| Binder | binding result [1] | Kd [2] [nM] |
| --- | --- | --- |
| MALPTKSSILDLSPGTQCSRSPEESHEAWAQCKDAGRQ (domain or fragment, UniProt D3ZTE4 1-38, looked up, Embryonic stem cell-expressed Ras (ERas), rat, D3ZTE4, N-terminal extension (Nex) aa 1-38; also called ERas rnNex; GST-Nex of rat ERas) [GST-rnNex (rat ERas N-terminal extension, aa 1-38)] | binds | – |
| GST-rnFL (rat ERas full length, aa 1-227) (natural protein, UniProt D3ZTE4 1-227, looked up, Embryonic stem cell-expressed Ras (ERas), rat, D3ZTE4, FL aa 1-227; also called GST-FL of rat ERas) MALPTKSSILDLSPGTQCSRSPEESHEAWAQCKDAGRQLPEYKAVVVGASGVGKSALTIQMTHHCFVKDHDPTIQDSYWKEVALDNGGYILNVLDTAGQDSHRALRDQCLAAGDGVLGVFALDDPSSLDQLQQICSTWNPHHKQPLVLVGNKSDLVSSAGDAHTAAAVLAHKLGAPLVKTSAKTRQGVEEAFALLVHEIQRAQEAVAESSKKTRHHKAVCSCGCSVA | binds | – |
| MELPTKPGTFDLGLATWSPSFQGETHRAQARRRDVGRQ (domain or fragment, UniProt Q7Z444 1-38, looked up, Embryonic stem cell-expressed Ras (ERas), human, Q7Z444, N-terminal extension (Nex) aa 1-38; Cloned into pMal-c5X-His or pGEX-4T1-N-TEV; used as GST fusion; also called ERas hsNex; GST-Nex of human ERas) [GST-hsNex (human ERas N-terminal extension, aa 1-38)] | – | 2100 |
| GST-hsFL (human ERas full length, aa 1-233) (natural protein, UniProt Q7Z444 1-233, looked up, Embryonic stem cell-expressed Ras (ERas), human, Q7Z444, FL aa 1-233; also called ERas hsFL; GST-FL of human ERas) MELPTKPGTFDLGLATWSPSFQGETHRAQARRRDVGRQLPEYKAVVVGASGVGKSALTIQLNHQCFVEDHDPTIQDSYWKELTLDSGDCILNVLDTAGQAIHRALRDQCLAVCDGVLGVFALDDPSSLIQLQQIWATWGPHPAQPLVLVGNKCDLVTTAGDAHAAAAALAHSWGAHFVETSAKTRQGVEEAFSLLVHEIQRVQEAMAKEPMARSCREKTRHQKATCHCGCSVA | binds | – |
